For the test, the target named is endothelial nitric oxide synthase (eNOS) (bovine recombinant baculovirus-expressed in Sf9 cells) (bovine) (UniProt P29473).
endothelial nitric oxide synthase (eNOS) (bovine recombinant baculovirus-expressed in Sf9 cells) (bovine), sequence (P29473 whole entry): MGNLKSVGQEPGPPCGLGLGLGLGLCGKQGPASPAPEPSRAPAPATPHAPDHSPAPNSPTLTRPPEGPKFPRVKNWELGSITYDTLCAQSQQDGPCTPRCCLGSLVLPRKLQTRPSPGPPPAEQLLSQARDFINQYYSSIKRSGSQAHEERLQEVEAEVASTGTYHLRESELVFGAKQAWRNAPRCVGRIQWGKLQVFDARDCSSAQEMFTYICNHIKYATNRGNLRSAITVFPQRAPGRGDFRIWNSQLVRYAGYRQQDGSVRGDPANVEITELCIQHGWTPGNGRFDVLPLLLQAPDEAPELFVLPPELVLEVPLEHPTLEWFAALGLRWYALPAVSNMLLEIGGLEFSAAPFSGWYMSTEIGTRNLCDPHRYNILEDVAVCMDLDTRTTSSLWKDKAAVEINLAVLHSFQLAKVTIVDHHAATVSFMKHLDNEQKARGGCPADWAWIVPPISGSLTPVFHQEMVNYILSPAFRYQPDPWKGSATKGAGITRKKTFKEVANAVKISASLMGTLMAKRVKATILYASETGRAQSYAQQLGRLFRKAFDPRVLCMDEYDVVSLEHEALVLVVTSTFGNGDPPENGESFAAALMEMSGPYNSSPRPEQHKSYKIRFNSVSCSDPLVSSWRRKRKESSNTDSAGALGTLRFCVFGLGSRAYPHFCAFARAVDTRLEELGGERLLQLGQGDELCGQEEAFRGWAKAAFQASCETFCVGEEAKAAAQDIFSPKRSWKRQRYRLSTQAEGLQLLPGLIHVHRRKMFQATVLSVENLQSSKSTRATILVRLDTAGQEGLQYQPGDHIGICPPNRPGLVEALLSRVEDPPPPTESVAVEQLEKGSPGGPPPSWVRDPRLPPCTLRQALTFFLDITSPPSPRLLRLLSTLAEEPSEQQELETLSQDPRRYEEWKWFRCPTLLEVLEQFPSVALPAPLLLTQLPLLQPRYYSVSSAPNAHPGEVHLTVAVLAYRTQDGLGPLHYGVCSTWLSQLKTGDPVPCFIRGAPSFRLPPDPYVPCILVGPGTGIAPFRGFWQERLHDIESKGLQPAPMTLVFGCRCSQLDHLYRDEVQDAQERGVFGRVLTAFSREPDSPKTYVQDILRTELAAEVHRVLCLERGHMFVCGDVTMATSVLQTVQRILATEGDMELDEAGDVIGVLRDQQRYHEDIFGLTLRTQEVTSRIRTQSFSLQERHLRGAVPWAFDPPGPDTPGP

As to “purified bovine brain phospho-(Y)-CaM (phosphorylated by c-Src and free of non-phosphorylated CaM) (from UniProt P62157 1-149) (natural protein)”, the increase of eNOS activity by phospho-(Y)-CaM over that by non-phosphorylated CaM, at increasing concentrations of CaM was determined as 30%.

The values are drawn from paper PMC4382182, “Characterization of Phospho-(Tyrosine)-Mimetic Calmodulin Mutants” (PLoS ONE, 2015).
